The text below walks through data of article PMC10576128.

Read-outs that look alike come from different tables or passages of the source.

Test [1] deals with prothymosin α (unlabeled) (human) (UniProt P06454). In words: ITC. (In general: In ITC the heat of successive injections is recorded.)
For test [2], the target named is ProTα-H1 dimer (PH) of labeled ProTα E56C/D110C and unlabeled H1 (human) (UniProt P06454). As to the kind of experiment: FRET or BRET. (In BRET a luciferase serves as donor, and the signal depends on an acceptor being close.)
The target in test [3] is ProTα E56C/D110C labeled with Alexa Fluors 488 and 594 (human) (UniProt P06454). As to the kind of experiment: FRET or BRET.
In test [4] the target is ProTα-H1 dimer (PH) of labeled ProTα E56C/D110C and unlabeled H1 (human) (UniProt P06454). In words: FRET or BRET. The source holds these as a separate data set.
In test [5] the target is ProTα E56C/D110C labeled with Alexa Fluors 488 and 594 (human) (UniProt P06454). In words: FRET or BRET. The source holds these as a separate data set.
In test [6] the target is prothymosin α (unlabeled) (human) (UniProt P06454). As to the kind of experiment: ITC. This is another data set of the same source.
For test [7], the target named is ProTα-H1 dimer (PH) of unlabeled ProTα and unlabeled H1 (human) (UniProt P06454). As to the kind of experiment: FRET or BRET.

Take “linker histone H1 (from UniProt P07305 1-194) (natural protein)”: the dH in test [1] is 8.37 kcal/mol; in test [6], 13.9 kcal/mol. In addition, the Kd (in general, the concentration at which binding is half-saturated) in test [2] stood at 120 nM; in test [3], 1.2 nM; in test [4] it was 13000 nM; in test [5], 0.92 nM.

B1: prothymosin α (unlabeled) (natural protein)
chain: MSDAAVDTSSEITTKDLKEKKEVVEEAENGRDAPANGNAENEENGEQEADNEVDEEEEEGGEEEEEEEEGDGEEEDGDEDEEAESATGKRAAEDDEDDDVDTKKQKTDEDD
For the molecule B1, the dissociation constant Kd in test [7] was determined as 3000 nM.
